From PMC3503143

Experiments:
[1] = biological target: AbBphP1 holoprotein (bacteriophytochrome 1 of Azospirillum brasilense Sp7, biliverdin-bound) (Azospirillum brasilense Sp7); assay: cross-linking
[2] = biological target: AbBphP1 holoprotein (bacteriophytochrome 1 of Azospirillum brasilense Sp7, biliverdin-bound) (Azospirillum brasilense Sp7); assay: SEC

## AbBphP1 holoprotein (bacteriophytochrome 1 of Azospirillum brasilense Sp7, biliverdin-bound) (natural protein)
[1]
  stoichiometry N: 2
[2]
  stoichiometry N: 2
